According to article PMC5233953:

How the values were obtained:
[1] = biological target: FrpD_(43-271) protein (Neisseria meningitidis); assay: SEC; Superdex 200 HR column; free proteins and an equimolar mixture of purified FrpD and FrpC_(1-414)
[2] = biological target: FrpD_(43-271) protein (Neisseria meningitidis); assay: SAXS; beamline X33 EMBL, room temperature; FrpD 1–9 mg/ml, FrpD-FrpC_(1-414) complex 1–5 mg/ml; molecular mass from the Porod volume
[3] = biological target: FrpD_(43-271) protein (Neisseria meningitidis); assay: cross-linking; FrpD-FrpC_(1-414) complex (1 mg/ml, 14 μM) with a 1:1 mixture of d0/d4 BS2G, 30 min; 70-kDa band digested with trypsin, nano-ESI-FTICR mass spectrometry

Measured: stoichiometry N

B1: FrpC_(1-414), the N-terminal domain of FrpC (domain or fragment)
chain: MNEGEVVLTPEQIQTLRGYASRGDTYGGWRYLANLGDRYADNAAAIVGKDTNLNGLNLWMKKGVENLWDDTVGKKTRLEKFDRVALQHFSQYVDLINKNNGRLPNTSEIERSYYKAVTYHGVSSSAAIDLVINRSLPDMADGYWALGLGIEAERIHNEQAVNNPNGSERDNRKQLISALDKGFDGSFKEKHFTFLQSVMMDLTKLGVEYTIDGWQKIGGWGNGIINDLYKSVVKREWTGIFEIVNNNIKQGNEAFKNEINSLVHDMKAAGKEFGDDLNTQWNNLTQAAEIIYNDIVDNTSQGIEKGVKAIKELSEKMKNAASDLADGSAEKAKQVVEDLAQAAKEAYENAKSTAEKAAQAAREFFKGLPSFKDLAEKFRDLFPNPEGWIDDGHQCFAPWVKETKKRNGKYHVYD
1: all assays above
